Experimental data reported in paper PMC5650921.

What was measured:
[1] = target: EREG/sEGFR501 complex (human) (UniProt P00533); test: small-angle X-ray scattering
[2] = target: sEGFR501 1-501 (Homo sapiens) (UniProt P00533); conditions: cited from earlier work

| Kd [1] [µM] | Substance | Kd [2] [µM] |
| --- | --- | --- |
| > 200 | EREG/sEGFR501 complex (from UniProt P00533 25-525; O14944 56-116) |  |
|  | sEGFR501 1-501 (from UniProt P00533) | 3 |
